From patent publication US20100047243A1 (published 2010)

Biological target: T1, recombinant cynomolgus macaque IGF-1R (IGF-1R-Fc fusion protein of Example 4) (cynomolgus macaque (Macaca fascicularis))
T1 construct: also called Cynomolgus IGF-1R; cyno IGF-1R
Assay: Biacore T100, antibody captured on Protein A, recombinant cynomolgus IGF-1R analyte (256-16 nM), HBS-EP, 37 C
Protocol: Protein A was immobilised on a CM5 surface by primary amine coupling in accordance with the manufacturers standard protocols. Antibodies against IGF-1R were captured on this surface and after a period of stabilisation recombinant human or cynomolgus IGF-1R was injected over this captured surface. […] Data was analysed using the 1:1 model inherent to the Biacore machine, the work was carried out on the T100 using HBS-EP running buffer at 37° C.

T1 sequence (chain, as listed by the source limits assumed): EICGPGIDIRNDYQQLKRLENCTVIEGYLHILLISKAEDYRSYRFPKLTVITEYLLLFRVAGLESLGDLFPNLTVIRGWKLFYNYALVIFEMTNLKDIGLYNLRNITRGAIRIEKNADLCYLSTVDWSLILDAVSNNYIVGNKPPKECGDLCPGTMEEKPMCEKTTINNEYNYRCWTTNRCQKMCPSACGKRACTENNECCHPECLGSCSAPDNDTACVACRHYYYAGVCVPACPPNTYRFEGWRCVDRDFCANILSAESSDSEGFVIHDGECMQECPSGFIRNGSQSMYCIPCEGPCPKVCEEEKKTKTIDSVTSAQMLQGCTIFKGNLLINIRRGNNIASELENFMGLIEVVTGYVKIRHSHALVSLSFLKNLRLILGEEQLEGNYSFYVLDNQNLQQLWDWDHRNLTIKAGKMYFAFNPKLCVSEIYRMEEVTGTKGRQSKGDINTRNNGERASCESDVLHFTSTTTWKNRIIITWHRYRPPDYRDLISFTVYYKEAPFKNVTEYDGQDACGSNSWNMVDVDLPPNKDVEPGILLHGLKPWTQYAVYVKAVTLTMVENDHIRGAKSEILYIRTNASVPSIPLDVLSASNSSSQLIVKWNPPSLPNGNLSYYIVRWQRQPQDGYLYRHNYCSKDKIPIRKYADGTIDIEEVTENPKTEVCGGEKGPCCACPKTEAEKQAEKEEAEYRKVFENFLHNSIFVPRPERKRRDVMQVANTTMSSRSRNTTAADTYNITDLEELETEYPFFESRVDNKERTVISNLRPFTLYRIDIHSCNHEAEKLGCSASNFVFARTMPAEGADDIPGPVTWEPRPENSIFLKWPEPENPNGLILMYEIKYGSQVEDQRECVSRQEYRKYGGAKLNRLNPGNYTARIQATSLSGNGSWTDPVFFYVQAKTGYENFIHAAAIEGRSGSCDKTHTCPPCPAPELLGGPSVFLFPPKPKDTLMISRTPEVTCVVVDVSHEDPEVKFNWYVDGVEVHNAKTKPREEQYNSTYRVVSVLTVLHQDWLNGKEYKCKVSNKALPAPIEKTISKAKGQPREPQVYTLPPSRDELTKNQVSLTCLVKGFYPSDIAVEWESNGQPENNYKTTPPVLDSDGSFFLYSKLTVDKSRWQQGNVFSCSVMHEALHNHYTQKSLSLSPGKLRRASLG

B1: 6E11 chimeric antibody (antibody, human IgG1, kappa, V domains shown)
VH: EVQLQQSGPELVKPGASVRISCKASGYAFTDYYMNWVKQSHGKSLEWVANINPNNGGTNYNQKFKDKATLTVDKSSNTAYMELRSLTSEDTAVYYCARWILYYGRSKWYFDVWGTGTLVTVSS
VL: DVLMTQTPLSLPVSLGDHASISCRSSQSIVQSNGDTYLEWYLQKPGQSPKLLIYRISNRFSGVPDRFSGSGSGTDFTLKISRVEAEDLGVYYCFQGSHVPYTFGGGTKLEIKR
notes: Murine 6E11 variable domains on human IgG1/kappa wild type constant regions; also called 6E11 chimera; 6E11 chimaera
With B1 the Kd was 0.19 nM.
